Seven molecules from US20230105029A1 (CHIA TAI TIANQING PHARMACEUTICAL GROUP, published 2023) can be followed below.

Substitutions are numbered along the chain they refer to. Read-outs that look alike come from different tables or passages of the source.

Experiment [1] deals with T1, recombinant human IL4Rα-his protein (in house made) (human, UniProt P24394 26-232, limits assumed).
T1 construct: also called Human IL4Ra-his
The experiment is described as follows: SPR (Biacore), antibody captured, IL4Rα-his flowed. On the technique in general: In SPR one partner is held on a chip, and binding of the other changes the refractive index at the surface.

Experiment [2] deals with T1, recombinant human IL4Rα-his protein (in …). The experiment is described as follows: capture ELISA: antibody captured on anti-IgG Fc plate, biotin human IL4Rα-his detected. The method, then: Plates were washed once with wash buffer (PBS+0.05% w/v Tween-20, PBST) and then blocked with 200 μl/well blocking buffer (5% w/v non-fatty milk in PBST) for 2 hours at 37° C. Plates were washed again and incubated with 100 μl/well serially diluted anti-IL4Rα antibodies of the disclosure, the benchmark or negative control hIgG (human immunoglobulin (pH4) for intravenous injection, Hualan Biological Engineering Inc.) (5-fold dilution in 2.5% w/v non-fatty milk in PBST, starting at 66.7 nM) for 40 minutes at 37° C., and then washed 4 times again. Plates containing captured anti-IL4Rα antibodies were incubated with biotin-labeled human IL4Rα-his protein (in house made with SEQ ID NO: 57, 0.14 nM in 2.5% w/v non-fatty milk in PBST, 100 μl/well) for 40 minutes at 37° C., washed 4 times, and incubated with streptavidin conjugated HRP (1:10000 dilution in PBST, Jackson Immuno Research, Cat #016-030-084, 100 μl/well) for 40 minutes at 37° C. After a final wash, plates were incubated with 100 μl/well ELISA substrate TMB (Innoreagents, Cat #TMB-S-002). The reaction was stopped in 10 minutes at 25° C. with 50 μl/well 1M H₂SO₄, and the absorbance was read at 450 nm. Data was analyzed using Graphpad Prism software and EC₅₀ values were reported.

In experiment [3] the target is T2, marmoset monkey IL4Rα-his protein (marmoset monkey).
T2 construct: Custom made by Sino biological; no cleavage site stated; also called cal-IL4Rα-his; Cal-IL4Rα
T2 chain: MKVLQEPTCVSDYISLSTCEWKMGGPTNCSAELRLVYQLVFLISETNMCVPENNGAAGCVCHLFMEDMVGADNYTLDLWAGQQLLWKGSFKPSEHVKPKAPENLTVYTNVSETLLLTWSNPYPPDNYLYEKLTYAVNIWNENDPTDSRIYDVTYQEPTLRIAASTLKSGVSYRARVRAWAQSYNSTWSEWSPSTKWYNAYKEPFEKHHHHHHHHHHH
The experiment is described as follows: indirect ELISA on coated cal-IL4Rα-his.

Experiment [4] deals with human IL4Rα expressed on HEK293T-IL4Rα-STAT6-STAT6LUC-LB2 cells (human, UniProt P24394 26-825). The experiment is described as follows: cell-based or functional assay.
For experiment [5], the target named is T1, recombinant human IL4Rα-his protein (in …). The experiment is described as follows: SPR (Biacore), antibody captured, IL4Rα-his flowed. This is another data set of the same source.
For experiment [6], the target named is T3, human IL4Rα expressed on 293F-IL4Rα cells (human, UniProt P24394 26-825).
T3 construct: whole, on cells; also called cell surface human IL4Rα
The experiment is described as follows: flow cytometry, 293F-IL4Rα cells. The method, then: Then, 2×10⁵ cells per well in 96 well-plates were incubated in 100 μL of the anti-IL4Rα antibodies or controls of various concentrations (starting at 80 nM with a 4-fold serial dilution) in FACS buffer for 40 minutes on ice. […] Following an incubation of 40 minutes at 4° C. in dark, cells were washed three times and resuspended in FACS buffer. Fluorescence was measured using a Becton Dickinson FACS Canto II-HTS equipment. Data was analyzed using Graphpad Prism software and EC₅₀ values were reported.

In experiment [7] the target is T1, recombinant human IL4Rα-his protein (in …). The experiment is described as follows: competitive ELISA, blocks biotin-IL4 binding to coated IL4Rα-his. How it is done:
Serially diluted anti-IL4Rα antibodies or the controls (starting at 80 nM with a 4-fold serial dilution) in 2.5% w/v non-fatty milk in PBST, 100 μl per well, were added to the IL4Rα bound plates, and incubated with the human IL4Rα-his proteins at 37° C. for 40 minutes. Plates were washed 4 times using wash buffer, and then added and incubated for 40 minutes at 37° C. with 100 μl/well of 0.56 nM biotin-labeled human IL4 protein (Sino biological inc., Cat #11846-HNAE). Plates were washed again using wash buffer. Thereafter, the plates were added with 100 μl/well of streptavidin conjugated HRP (1:10000 dilution in PBST buffer, Jackson Immunoresearch, Cat #016-030-084) and incubated for 40 minutes at 37° C. Plates were washed again using wash buffer. Finally, TMB was added and the reaction was stopped using 1M H₂SO₄, and the absorbance was read at 450 nm. Data was analyzed using Graphpad Prism software and IC₅₀ values were reported.

Experiment [8] deals with T3, human IL4Rα expressed on 293F-IL4Rα …. The experiment is described as follows: flow cytometry on 293F-IL4Rα cells.
The target in experiment [9] is T4, cynomolgus monkey IL4Rα-his protein (cynomolgus monkey, UniProt A0A2K5V580 33-239).
T4 construct: Bought protein; also called Cynomolgus IL4Rα; Cyno-IL4Rα-his; not shown: his tag
The experiment is described as follows: indirect ELISA on coated cynomolgus IL4Rα-his. Background: In an ELISA, binding on a coated surface is turned into a signal by an enzyme label.

In experiment [10] the target is T2, marmoset monkey IL4Rα-his protein. The experiment is described as follows: indirect ELISA on coated cal-IL4Rα-his.
Experiment [11] concerns the target T1, recombinant human IL4Rα-his protein (in …). The experiment is described as follows: capture ELISA: antibody captured on anti-IgG Fc plate, biotin human IL4Rα-his detected. The source holds these as a separate data set.
The target is the same in experiment [12]. The experiment is described as follows: competitive ELISA: coated human IL4Rα-his, blocked ligand biotin human IL4.
Experiment [13] concerns the target T3, human IL4Rα expressed on 293F-IL4Rα …. The experiment is described as follows: flow cytometry on 293F-IL4Rα cells, blocked ligand biotin human IL4. In general terms: Flow cytometry measures light scatter and fluorescence of single cells or particles in a stream.
Experiment [14] shares this target. The experiment is described as follows: flow cytometry on 293F-IL4Rα cells. The source holds these as a separate data set.
Experiment [15] concerns the target T4, cynomolgus monkey IL4Rα-his protein. The experiment is described as follows: indirect ELISA on coated cynomolgus IL4Rα-his. The source holds these as a separate data set.

B1: mouse antibody C2C1A1A1 (antibody, V domains shown)
VH: EVQLVESGGGLVQPGGSLKLSCAASGFTFSTYGMSWVRQTPDKRLELVATINSNGGSTSYPDSVKGRFTISRDNAKNTLYLQMSSLKSEDTAMFYCARFFRFRNAMDYWGQGTSVTVSS
VL: DIQMTQSPASLSASVGETVTITCRTSENIYSYLAWYQQKQGKSPQFLVYNAKTLAEGVPSRFSGSGSGTQFSLNINSLQSEDFGSYYCQHYYGPPTWTFGGGTKLEIK
notes: Mouse hybridoma mAb; also called Mouse C2C1A1A1
For the molecule B1, the equilibrium dissociation constant (Kd) in experiment [1] came out at 0.119 nM. The EC50 in [2] was 0.0759 nM; in [3], 0.574 nM.

B2: chimeric antibody C2C1A1A1 (antibody, human IgG4 S228P, kappa, V domains shown)
VH: B1 VH
VL: DIQMTQSPASLSASVGETVTITCRTSENIYSYLAWYQQKQGKSPQFLVYNAKTLAEGVPSRFSGSGSGTQFSLNINSLQSEDFGSYYCQHYYGPPTWTFGGGTKLEIKR
notes: Mouse variable domains on human IgG4/kappa; also called Chimeric C2C1A1A1; chC2C1A1A1
Consider B2, for which the “Inhibition on IL4 induced STAT6 phosphorylation (IC50, nM)” value in [4] worked out at 0.26 nM. The “Inhibition on IL13 induced STAT6 phosphorylation (IC50, nM)” value in [4] came out at 0.39 nM. The Kd in [1] was 0.522 nM; in [5] it was 0.388 nM. For the same molecule, the EC50 in experiment [6] worked out at 0.33 nM; in experiment [8], 0.326 nM; in [3], 0.623 nM; in experiment [9], 0.603 nM. Moreover, in [7], the IC50 is 2.46 nM.

B3: mouse antibody C2B2F7B7 (antibody, V domains shown)
VH: B1 VH with S59N, F94Y, F102I
VL: B1 VL with T25A, N74K, S80P, P94T
notes: Mouse hybridoma mAb
Regarding B3, in [2], the EC50 was 0.129 nM.

B4: mouse antibody B8G11F2B7G5E8 (antibody, V domains shown)
VH: EVQLQQSGADLVRPGASVKLSCTASGFNIKDTYMHWVKQRPEQGLEWVGRIDPTNGYTIYASKFQGKATITADTSSNTAYMQLSSLTSGDTAVYHCVSRRPWFAYWGQGTLVTVSA
VL: DILMTQTPLSLPVSLGAQASISCRSSQSIVHSNGNTYLEWYLQKPGQSPKLLIYKVTNRFSGVPDRFSGSGSGTDFTLKISRVEAEDLGIYYCFQGSHVPYTFGGGTKLEIK
notes: Mouse hybridoma mAb; also called Mouse B8G11F2B7G5E8; mAb B8G11F2B7G5E8
For B4, the EC50 in experiment [10] was determined as 0.873 nM; in [11] it was 0.213 nM; in [6] it was 0.33 nM; in [14] it was 0.325 nM; in [2], 0.0393 nM; in [15] it was 0.5 nM. The Kd in experiment [1] is 2.98 nM. Moreover, the half-maximal inhibitory concentration (IC50) was 1 nM in experiment [12], 0.5 nM in experiment [13] and 1 nM in [7].

B5: chimeric antibody B8G11F2B7G5E8 (antibody, human IgG4 S228P, kappa, V domains shown)
VH: B4 VH
VL: DILMTQTPLSLPVSLGAQASISCRSSQSIVHSNGNTYLEWYLQKPGQSPKLLIYKVTNRFSGVPDRFSGSGSGTDFTLKISRVEAEDLGIYYCFQGSHVPYTFGGGTKLEIKR
notes: Mouse variable domains on human IgG4/kappa; also called Chimeric B8G11F2B7G5E8; chB8G11F2B7G5E8
For the molecule B5, the “Inhibition on IL4 induced STAT6 phosphorylation (IC50, nM)” value in [4] amounted to 0.45 nM. Besides, in [4], the “Inhibition on IL13 induced STAT6 phosphorylation (IC50, nM)” value was 0.5 nM. The EC50 in experiment [10] was found to be 1.01 nM; in experiment [11], 0.319 nM; in [6] it was 0.44 nM; in experiment [14] it was 0.442 nM; in experiment [15] it was 1.06 nM. For the same molecule, the Kd in experiment [1] worked out at 2.99 nM; in experiment [5] it was 3.23 nM. Further, the IC50 in experiment [12] is 1.42 nM; in experiment [13], 0.364 nM; in experiment [7], 1.42 nM.

B6: mouse antibody B1D2F7D3B5 (antibody, V domains shown)
VH: EVKLVESGGGLVKPGGSLKLSCAASGFTFSSYAMSWVRQTPEKRLEWVASISSGDSTYYLDSVKGRFTISRDNAMNILYLQMSSLRSEDTAVYYCERSGGSAPYWGQGTLVSVSA
VL: QIVLTQSPAIMSASPGEMVTISCSASSSVSYMYWYQQKPGSSPKPWIYRTSNLASGVPARFSGSGSGTSYSLTISSMEAEDAATYYCQQYHSFPLTFGAGTKLELK
notes: Mouse hybridoma mAb
Regarding B6, in [2], the EC50 was 0.0644 nM.

B7: mouse antibody B9D1D11F8D8 (antibody, V domains shown)
VH: B6 VH with M75R, M82V, V92M, S112T
VL: B6 VL with E17D, S30N
notes: Mouse hybridoma mAb
For the molecule B7, the EC50 in experiment [2] stood at 0.0703 nM.

One may read the Kd as the equilibrium constant for the complex coming apart. The EC50 is the concentration that produces a half-maximal response. What is called IC50 is the concentration needed to halve the response being measured.
